The target in this experiment is T1, human transferrin (human, UniProt P02787 20-698).
T1 construct: The assay paragraphs say only 'transferrin (Biogenesis)'; also called transferrin (Biogenesis); antigen
As to the kind of experiment: ELISA, transferrin-coated plate, silk gland extract, anti-mouse Ig-HRP detection. How it is done:
Measurement of the activity of a recombinant antibody against an antigen by enzyme-linked immunosorbent assay (ELISA) was carried out by the following procedure. […] This was homogenized using a glass homogenizer and centrifuged at 14,000 rpm for 20 minutes, and then the supernatant was diluted five times (40 mg/ml) and ten times ([…]) in Tris buffer. These samples and the undiluted sample (original concentration: 200 mg/ml) were used as samples for ELISA measurement. Furthermore, similar procedures were used to prepare samples of the Ser1GAL4 strain silkworms for ELISA measurement as a negative control. 100 μl of the samples for ELISA measurement thus prepared were dispensed into a microtiter plate (NUNC) presensitized with 100 μg/well of transferrin (Biogenesis), and the plate was shaken at room temperature for two hours. Next, the ELISA measurement samples were removed from the wells, and the wells were washed three times with 200 μl of PBS-T. Into each well, 100 μl of a solution prepared in advance by diluting a rabbit anti-mouse Ig-HRP-labeled antibody 100-fold with PBS (150 mM NaCl, 10 mM phosphate buffer, pH 7.4) was dispensed, and the plate was shaken at room temperature for six hours. […] After that, the absorbance at 450 nm was measured using a model 550 microplate reader (BioRad).
(ELISA stands for enzyme-linked immunosorbent assay.)

T1 sequence (P02787 20-698 limits assumed): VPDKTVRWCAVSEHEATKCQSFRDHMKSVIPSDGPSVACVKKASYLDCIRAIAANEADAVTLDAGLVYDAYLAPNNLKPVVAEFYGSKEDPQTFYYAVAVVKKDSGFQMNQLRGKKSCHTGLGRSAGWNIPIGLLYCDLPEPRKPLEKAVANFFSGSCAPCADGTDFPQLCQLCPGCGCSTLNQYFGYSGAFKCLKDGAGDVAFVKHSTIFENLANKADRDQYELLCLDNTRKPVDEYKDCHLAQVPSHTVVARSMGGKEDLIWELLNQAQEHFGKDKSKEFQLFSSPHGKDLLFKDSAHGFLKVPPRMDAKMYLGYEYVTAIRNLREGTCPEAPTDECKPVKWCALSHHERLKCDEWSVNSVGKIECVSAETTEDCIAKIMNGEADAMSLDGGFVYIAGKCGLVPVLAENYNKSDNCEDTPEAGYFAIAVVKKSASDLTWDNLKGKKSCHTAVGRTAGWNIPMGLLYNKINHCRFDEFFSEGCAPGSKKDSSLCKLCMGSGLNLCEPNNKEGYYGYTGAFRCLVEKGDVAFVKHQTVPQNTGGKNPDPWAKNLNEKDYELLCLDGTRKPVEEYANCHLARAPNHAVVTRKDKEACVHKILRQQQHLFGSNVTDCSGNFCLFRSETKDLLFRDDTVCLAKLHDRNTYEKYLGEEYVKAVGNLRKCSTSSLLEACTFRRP

B1: scFv antibody from a mouse anti-human transferrin antibody (anti-transferrin scFv antibody) (scFv)
scFv: LEVQLQESGPDLVKPSQSLSLTCTVTGYSITSGYSWHWIRQFPENKLEWLGYIHSSGATNYSPSLKSRFSITRDTSKNQFFLQLNSVTTEDTATYYCARDGYSPPYAMDYWGQGTTVTVSSGGGGSGGGGSGGGGSDIELTQSPSSLAVSVGEKVTMTCKSSQSLLYSTNQKNYLAWYQQKPGQSPKLLIYWASTRESGVPDRFTGSGSGTDFTLTISSVKAEDLSVYYCQQYYSYPPTFGSGTKLEIK
notes: The signal piece is left out here as a secretion signal; Tested as a crude middle silk gland extract of Ser1GAL4/UASFvaTf silkworms, not purified; also called aTf; FvaTf
On to B1, for which the binding result is listed as “binds”.

For the origin of these results see US20110021757A1 (NATIONAL INSTITUTE OF AGROBIOLOGICAL SCIENCES, published 2011).
